Sequences and labels used below:
B1: 5F9-H2K1-IgG4 (antibody, V domains shown)
VH: QVQLKESGPGLVKPSETLSLTCTVSGFSLTTYDISWVRQPPGKGLEWLGVIWTGGGTNYNSSFMSRVTISKDTSKNQVSLKLSSVTAADTAIYYCERVDYWGQGTTVTVSS
VL: DVVMTQSPLSLPVTLGQPASISCRSSQSLVHSNGNTYLHWFQQRPGQSPRLLIYKVSNRFSGVPDRFSGSGSGTAFTFKISRVEAEDVGVYYCSQNTHVPWTFGGGTKVEIK
notes: humanized
B2: 5F9-H2K3-IgG4 (antibody, V domains shown)
VH: B1 VH
VL: B1 VL with F41Y, R50K, V109L
notes: humanized
B3: 5F9-H3K3-IgG4 (antibody, V domains shown)
VH: B1 VH with L20I, T73N, V107L
VL: B1 VL with F41Y, R50K, V109L
notes: humanized
B4: 5F9-H3K4-IgG4 (antibody, V domains shown)
VH: B1 VH with L20I, T73N, V107L
VL: B1 VL with Q17D, F41Y, Q42L, R50K, V109L
notes: humanized
B5: 5F9-H2K4-IgG4 (antibody, V domains shown)
VH: B1 VH
VL: B1 VL with Q17D, F41Y, Q42L, R50K, V109L
notes: humanized
B6: 5F9-H3K1-IgG4 (antibody, V domains shown)
VH: B1 VH with L20I, T73N, V107L
VL: B1 VL
notes: humanized
B7: 5F9-H3K2-IgG4 (antibody, V domains shown)
VH: B1 VH with L20I, T73N, V107L
VL: B1 VL with R50K
notes: humanized
B8: 6A5-H2K2-IgG2 (antibody, V domains shown)
VH: QVQLVQSGAEVKKPGSSVKLSCKASGYTFSSYWINWVRQAPGQGLEWIGNIYPSDSYTNYNQKFKDRATLTVDKSTSTAYMELSSLRSEDTAVYYCTRTWEFYYDSVFDYWGQGTLVTVSS
VL: DIQMTQSPSSLSASLGERVTITCKASQDINSYLSWYQQKPGKAPKTLIYRANRLVDGVPSRFSGSGSGQDFTLTISSLQPEDIATYYCLQYDELPPTFGGGTKVEIK
notes: humanized
B9: 6A5-H1K2-IgG2 (antibody, V domains shown)
VH: B8 VH with I48M, A68V
VL: B8 VL
notes: humanized
B10: 6A5-H1K3-IgG2 (antibody, V domains shown)
VH: B8 VH with I48M, A68V
VL: B8 VL with Y36F
notes: humanized
B11: 6A5-H1K4-IgG2 (antibody, V domains shown)
VH: B8 VH with I48M, A68V
VL: B8 VL with Y36F, F71Y, V104L
notes: humanized
B12: 6A5-H1K1-IgG2 (antibody, V domains shown)
VH: B8 VH with I48M, A68V
VL: B8 VL with T46L
notes: humanized

Changes are numbered by the printed parent chain.

For this assay, the target named is T1, Histidine-tagged human 4-1BB protein (h4-1BB-His) (human, UniProt Q07011 24-186).
T1 construct: not shown: histidine tag
In words: SPR (Biacore T200), antibody on Protein A chip, h4-1BB-His injected.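 Further: dissociation phase followed for 300 s, Kd derived as koff divided by kon from the kinetic fit.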 In general terms: Surface plasmon resonance follows binding to a sensor surface in real time, without labels.
As to B1, the affinity, expressed as Kd, was 11.2 nM; the koff – broadly, a measure of how fast the partners let go of each other – is 0.00225 s⁻¹; the kon (usually a measure of how fast the partners come together) stood at 202000 M⁻¹ s⁻¹.

Take B2: binding was put at a Kd of 9.81 nM, the koff came out at 0.00207 s⁻¹ and the kon came out at 212000 M⁻¹ s⁻¹.

For B3, the Kd (commonly the concentration at which binding is half-saturated) stood at 10.5 nM, the koff is 0.0022 s⁻¹ and the kon was 210000 M⁻¹ s⁻¹.

In the case of B4, binding was characterised by a dissociation constant (Kd) of 11.4 nM, the off-rate constant (koff) was found to be 0.0027 s⁻¹ and the kon was 236000 M⁻¹ s⁻¹.

B5 returned a Kd of 12.4 nM, a koff of 0.00269 s⁻¹ and an on-rate (kon) of 216000 M⁻¹ s⁻¹.

With B6, binding was characterised by a dissociation constant (Kd) of 12.2 nM, the koff worked out at 0.00242 s⁻¹ and the kon worked out at 198000 M⁻¹ s⁻¹.

The molecule B7 displayed a Kd of 13.7 nM, a koff of 0.00258 s⁻¹ and a kon of 188000 M⁻¹ s⁻¹.

Consider B8, for which the Kd amounted to 0.28 nM, the koff is 0.000652 s⁻¹ and the kon came to 2.33e+06 M⁻¹ s⁻¹.

Regarding B9, the Kd was found to be 0.278 nM, the koff was 0.000662 s⁻¹ and the kon came out at 2.38e+06 M⁻¹ s⁻¹.

For B10, the Kd worked out at 0.214 nM, the koff was 0.000475 s⁻¹ and the kon was found to be 2.22e+06 M⁻¹ s⁻¹.

Molecule B11 came in with a Kd of 0.321 nM, a koff of 0.000693 s⁻¹ and an association rate constant (kon) of 2.16e+06 M⁻¹ s⁻¹.

Molecule B12 registered a Kd of 1.17 nM.

The values above are taken from patent US20240092922A1 (EUCURE BEIJING BIOPHARMA, published 2024).
